From patent US20190338009A1 (ZEALAND PHARMA A S, published 2019)
Values belong to the binder of their own block, whether it stands above or below them. Square brackets hold non-standard residues; d marks the D form. Aib = CC(C)(N)C(=O)O

Assays:
[1] = molecular target: human glucagon-like peptide 1 receptor (GLP-1R) (human, UniProt P43220 24-463); assay: cell-based or functional assay
[2] = molecular target: T1, human GLP-2 receptor (hGLP2-R) (human, UniProt O95838 1-553); assay: cell-based or functional assay
T1 sequence (looked up): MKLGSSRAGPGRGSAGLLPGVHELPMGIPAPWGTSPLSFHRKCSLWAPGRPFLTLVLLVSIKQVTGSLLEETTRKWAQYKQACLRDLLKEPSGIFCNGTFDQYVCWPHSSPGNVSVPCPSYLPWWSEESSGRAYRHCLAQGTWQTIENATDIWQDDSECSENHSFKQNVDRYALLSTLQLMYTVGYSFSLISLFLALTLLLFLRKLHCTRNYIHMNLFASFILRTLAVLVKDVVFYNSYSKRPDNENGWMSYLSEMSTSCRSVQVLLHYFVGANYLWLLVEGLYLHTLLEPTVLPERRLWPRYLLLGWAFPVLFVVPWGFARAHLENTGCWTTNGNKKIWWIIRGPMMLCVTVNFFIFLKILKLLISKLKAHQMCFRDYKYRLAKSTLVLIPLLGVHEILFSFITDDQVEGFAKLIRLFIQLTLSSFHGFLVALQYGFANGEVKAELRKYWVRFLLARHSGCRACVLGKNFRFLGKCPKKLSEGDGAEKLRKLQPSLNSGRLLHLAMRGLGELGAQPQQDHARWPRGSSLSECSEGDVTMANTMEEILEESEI

EC50 GLP-1 (nM); cAMP AlphaScreen, HEK293 cells expressing human GLP-1R [1]: 0.005 nM | EC50 GLP-2 (nM); cAMP AlphaScreen, HEK293 cells expressing human GLP-2R [2]: 0.15 nM
B1: Compound 19 (peptide)
peptide: H-H[Aib]EGTFTSELATILDEQAARDFIAWLIAQKITD-OH
SMILES: CC[C@H](C)[C@H](NC(=O)[C@H](CC(C)C)NC(=O)[C@H](Cc1c[nH]c2ccccc12)NC(=O)[C@H](C)NC(=O)[C@@H](NC(=O)[C@H](Cc1ccccc1)NC(=O)[C@H](CC(=O)O)NC(=O)[C@H](CCCNC(=N)N)NC(=O)[C@H](C)NC(=O)[C@H](C)NC(=O)[C@H](CCC(N)=O)NC(=O)[C@H](CCC(=O)O)NC(=O)[C@H](CC(=O)O)NC(=O)[C@H](CC(C)C)NC(=O)[C@@H](NC(=O)[C@@H](NC(=O)[C@H](C)NC(=O)[C@H](CC(C)C)NC(=O)[C@H](CCC(=O)O)NC(=O)[C@H](CO)NC(=O)[C@@H](NC(=O)[C@H](Cc1ccccc1)NC(=O)[C@@H](NC(=O)CNC(=O)[C@H](CCC(=O)O)NC(=O)C(C)(C)NC(=O)[C@@H](N)Cc1c[nH]cn1)[C@@H](C)O)[C@@H](C)O)[C@@H](C)O)[C@@H](C)CC)[C@@H](C)CC)C(=O)N[C@@H](C)C(=O)N[C@@H](CCC(N)=O)C(=O)N[C@@H](CCCCN)C(=O)N[C@H](C(=O)N[C@H](C(=O)N[C@@H](CC(=O)O)C(=O)O)[C@@H](C)O)[C@@H](C)CC

EC50 GLP-1 (nM); cAMP AlphaScreen, HEK293 cells expressing human GLP-1R [1]: 0.12 nM | EC50 GLP-2 (nM); cAMP AlphaScreen, HEK293 cells expressing human GLP-2R [2]: 0.034 nM
B2: Compound 23 (peptide)
peptide: H-H[Aib]EGSFTSELATILDEQAARDFIAWLYEHKITD-OH
SMILES: CC[C@H](C)[C@H](NC(=O)[C@H](Cc1ccccc1)NC(=O)[C@H](CC(=O)O)NC(=O)[C@H](CCCNC(=N)N)NC(=O)[C@H](C)NC(=O)[C@H](C)NC(=O)[C@H](CCC(N)=O)NC(=O)[C@H](CCC(=O)O)NC(=O)[C@H](CC(=O)O)NC(=O)[C@H](CC(C)C)NC(=O)[C@@H](NC(=O)[C@@H](NC(=O)[C@H](C)NC(=O)[C@H](CC(C)C)NC(=O)[C@H](CCC(=O)O)NC(=O)[C@H](CO)NC(=O)[C@@H](NC(=O)[C@H](Cc1ccccc1)NC(=O)[C@H](CO)NC(=O)CNC(=O)[C@H](CCC(=O)O)NC(=O)C(C)(C)NC(=O)[C@@H](N)Cc1c[nH]cn1)[C@@H](C)O)[C@@H](C)O)[C@@H](C)CC)C(=O)N[C@@H](C)C(=O)N[C@@H](Cc1c[nH]c2ccccc12)C(=O)N[C@@H](CC(C)C)C(=O)N[C@@H](Cc1ccc(O)cc1)C(=O)N[C@@H](CCC(=O)O)C(=O)N[C@@H](Cc1c[nH]cn1)C(=O)N[C@@H](CCCCN)C(=O)N[C@H](C(=O)N[C@H](C(=O)N[C@@H](CC(=O)O)C(=O)O)[C@@H](C)O)[C@@H](C)CC

EC50 GLP-1 (nM); cAMP AlphaScreen, HEK293 cells expressing human GLP-1R [1]: 0.28 nM | EC50 GLP-2 (nM); cAMP AlphaScreen, HEK293 cells expressing human GLP-2R [2]: 0.042 nM
B3: Compound 22 (peptide)
peptide: H-H[Aib]EGSFTSELATILDEQAARDFIAWLHAHKITD-OH
SMILES: CC[C@H](C)[C@H](NC(=O)[C@H](Cc1ccccc1)NC(=O)[C@H](CC(=O)O)NC(=O)[C@H](CCCNC(=N)N)NC(=O)[C@H](C)NC(=O)[C@H](C)NC(=O)[C@H](CCC(N)=O)NC(=O)[C@H](CCC(=O)O)NC(=O)[C@H](CC(=O)O)NC(=O)[C@H](CC(C)C)NC(=O)[C@@H](NC(=O)[C@@H](NC(=O)[C@H](C)NC(=O)[C@H](CC(C)C)NC(=O)[C@H](CCC(=O)O)NC(=O)[C@H](CO)NC(=O)[C@@H](NC(=O)[C@H](Cc1ccccc1)NC(=O)[C@H](CO)NC(=O)CNC(=O)[C@H](CCC(=O)O)NC(=O)C(C)(C)NC(=O)[C@@H](N)Cc1c[nH]cn1)[C@@H](C)O)[C@@H](C)O)[C@@H](C)CC)C(=O)N[C@@H](C)C(=O)N[C@@H](Cc1c[nH]c2ccccc12)C(=O)N[C@@H](CC(C)C)C(=O)N[C@@H](Cc1c[nH]cn1)C(=O)N[C@@H](C)C(=O)N[C@@H](Cc1c[nH]cn1)C(=O)N[C@@H](CCCCN)C(=O)N[C@H](C(=O)N[C@H](C(=O)N[C@@H](CC(=O)O)C(=O)O)[C@@H](C)O)[C@@H](C)CC

EC50 GLP-1 (nM); cAMP AlphaScreen, HEK293 cells expressing human GLP-1R [1]: 0.049 nM | EC50 GLP-2 (nM); cAMP AlphaScreen, HEK293 cells expressing human GLP-2R [2]: 0.11 nM
B4: Compound 21 (peptide)
peptide: H-H[Aib]EGTFTSELATILDEQAARDFIAWLHQHKITD-OH
SMILES: CC[C@H](C)[C@H](NC(=O)[C@H](Cc1ccccc1)NC(=O)[C@H](CC(=O)O)NC(=O)[C@H](CCCNC(=N)N)NC(=O)[C@H](C)NC(=O)[C@H](C)NC(=O)[C@H](CCC(N)=O)NC(=O)[C@H](CCC(=O)O)NC(=O)[C@H](CC(=O)O)NC(=O)[C@H](CC(C)C)NC(=O)[C@@H](NC(=O)[C@@H](NC(=O)[C@H](C)NC(=O)[C@H](CC(C)C)NC(=O)[C@H](CCC(=O)O)NC(=O)[C@H](CO)NC(=O)[C@@H](NC(=O)[C@H](Cc1ccccc1)NC(=O)[C@@H](NC(=O)CNC(=O)[C@H](CCC(=O)O)NC(=O)C(C)(C)NC(=O)[C@@H](N)Cc1c[nH]cn1)[C@@H](C)O)[C@@H](C)O)[C@@H](C)O)[C@@H](C)CC)C(=O)N[C@@H](C)C(=O)N[C@@H](Cc1c[nH]c2ccccc12)C(=O)N[C@@H](CC(C)C)C(=O)N[C@@H](Cc1c[nH]cn1)C(=O)N[C@@H](CCC(N)=O)C(=O)N[C@@H](Cc1c[nH]cn1)C(=O)N[C@@H](CCCCN)C(=O)N[C@H](C(=O)N[C@H](C(=O)N[C@@H](CC(=O)O)C(=O)O)[C@@H](C)O)[C@@H](C)CC

EC50 GLP-1 (nM); cAMP AlphaScreen, HEK293 cells expressing human GLP-1R [1]: 0.012 nM | EC50 GLP-2 (nM); cAMP AlphaScreen, HEK293 cells expressing human GLP-2R [2]: 0.26 nM
B5: Compound 20 (peptide)
peptide: H-H[Aib]EGTFTSELATILDEQAARDFIAWLIAYKITD-OH
SMILES: CC[C@H](C)[C@H](NC(=O)[C@H](CC(C)C)NC(=O)[C@H](Cc1c[nH]c2ccccc12)NC(=O)[C@H](C)NC(=O)[C@@H](NC(=O)[C@H](Cc1ccccc1)NC(=O)[C@H](CC(=O)O)NC(=O)[C@H](CCCNC(=N)N)NC(=O)[C@H](C)NC(=O)[C@H](C)NC(=O)[C@H](CCC(N)=O)NC(=O)[C@H](CCC(=O)O)NC(=O)[C@H](CC(=O)O)NC(=O)[C@H](CC(C)C)NC(=O)[C@@H](NC(=O)[C@@H](NC(=O)[C@H](C)NC(=O)[C@H](CC(C)C)NC(=O)[C@H](CCC(=O)O)NC(=O)[C@H](CO)NC(=O)[C@@H](NC(=O)[C@H](Cc1ccccc1)NC(=O)[C@@H](NC(=O)CNC(=O)[C@H](CCC(=O)O)NC(=O)C(C)(C)NC(=O)[C@@H](N)Cc1c[nH]cn1)[C@@H](C)O)[C@@H](C)O)[C@@H](C)O)[C@@H](C)CC)[C@@H](C)CC)C(=O)N[C@@H](C)C(=O)N[C@@H](Cc1ccc(O)cc1)C(=O)N[C@@H](CCCCN)C(=O)N[C@H](C(=O)N[C@H](C(=O)N[C@@H](CC(=O)O)C(=O)O)[C@@H](C)O)[C@@H](C)CC

EC50 GLP-1 (nM); cAMP AlphaScreen, HEK293 cells expressing human GLP-1R [1]: 0.006 nM | EC50 GLP-2 (nM); cAMP AlphaScreen, HEK293 cells expressing human GLP-2R [2]: 0.066 nM
B6: Compound 17 (peptide)
peptide: H-H[Aib]EGTFTSELATILDEQAARDFIAWLIRHKITD-OH
SMILES: CC[C@H](C)[C@H](NC(=O)[C@H](Cc1ccccc1)NC(=O)[C@H](CC(=O)O)NC(=O)[C@H](CCCNC(=N)N)NC(=O)[C@H](C)NC(=O)[C@H](C)NC(=O)[C@H](CCC(N)=O)NC(=O)[C@H](CCC(=O)O)NC(=O)[C@H](CC(=O)O)NC(=O)[C@H](CC(C)C)NC(=O)[C@@H](NC(=O)[C@@H](NC(=O)[C@H](C)NC(=O)[C@H](CC(C)C)NC(=O)[C@H](CCC(=O)O)NC(=O)[C@H](CO)NC(=O)[C@@H](NC(=O)[C@H](Cc1ccccc1)NC(=O)[C@@H](NC(=O)CNC(=O)[C@H](CCC(=O)O)NC(=O)C(C)(C)NC(=O)[C@@H](N)Cc1c[nH]cn1)[C@@H](C)O)[C@@H](C)O)[C@@H](C)O)[C@@H](C)CC)C(=O)N[C@@H](C)C(=O)N[C@@H](Cc1c[nH]c2ccccc12)C(=O)N[C@@H](CC(C)C)C(=O)N[C@H](C(=O)N[C@@H](CCCNC(=N)N)C(=O)N[C@@H](Cc1c[nH]cn1)C(=O)N[C@@H](CCCCN)C(=O)N[C@H](C(=O)N[C@H](C(=O)N[C@@H](CC(=O)O)C(=O)O)[C@@H](C)O)[C@@H](C)CC)[C@@H](C)CC

EC50 GLP-1 (nM); cAMP AlphaScreen, HEK293 cells expressing human GLP-1R [1]: 0.006 nM | EC50 GLP-2 (nM); cAMP AlphaScreen, HEK293 cells expressing human GLP-2R [2]: 0.054 nM
B7: Compound 18 (peptide)
peptide: H-H[Aib]EGTFTSELATILDEQAARDFIAWLISHKITD-OH
SMILES: CC[C@H](C)[C@H](NC(=O)[C@H](Cc1ccccc1)NC(=O)[C@H](CC(=O)O)NC(=O)[C@H](CCCNC(=N)N)NC(=O)[C@H](C)NC(=O)[C@H](C)NC(=O)[C@H](CCC(N)=O)NC(=O)[C@H](CCC(=O)O)NC(=O)[C@H](CC(=O)O)NC(=O)[C@H](CC(C)C)NC(=O)[C@@H](NC(=O)[C@@H](NC(=O)[C@H](C)NC(=O)[C@H](CC(C)C)NC(=O)[C@H](CCC(=O)O)NC(=O)[C@H](CO)NC(=O)[C@@H](NC(=O)[C@H](Cc1ccccc1)NC(=O)[C@@H](NC(=O)CNC(=O)[C@H](CCC(=O)O)NC(=O)C(C)(C)NC(=O)[C@@H](N)Cc1c[nH]cn1)[C@@H](C)O)[C@@H](C)O)[C@@H](C)O)[C@@H](C)CC)C(=O)N[C@@H](C)C(=O)N[C@@H](Cc1c[nH]c2ccccc12)C(=O)N[C@@H](CC(C)C)C(=O)N[C@H](C(=O)N[C@@H](CO)C(=O)N[C@@H](Cc1c[nH]cn1)C(=O)N[C@@H](CCCCN)C(=O)N[C@H](C(=O)N[C@H](C(=O)N[C@@H](CC(=O)O)C(=O)O)[C@@H](C)O)[C@@H](C)CC)[C@@H](C)CC
